Experimental data: paper PMC10889886

Experiments:
[1] = biological target: HCoV-229E Spike antigen (HCoV-229E) (UniProt P15423); experiment: […], PBS running buffer; […]
[2] = biological target: soluble SARS-CoV-2 Spike (S) (SARS-CoV-2); experiment: […], PBS running buffer; […]

| Substance | stoichiometry N [1] | stoichiometry N [2] |
| --- | --- | --- |
| HCoV-229E Spike antigen (from UniProt P15423 16-1173) (natural protein) | 3 | – |
| soluble SARS-CoV-2 Spike (S) (domain or fragment) | – | 3 |
